This assay has as its target FBF-1/CSR-1 heterodimer (GST-FBF-1 with His6-CSR-1(MID-PIWI)) (C. elegans) (UniProt Q9N5M6). The assay can be described thus: pull-down.

Broadly, the stoichiometry N is a count of units in the complex or per binding partner. On to Recombinant EFT-3 (natural protein), for which the stoichiometry N amounted to 1.

The values above are taken from PMC3293257.
